Assay results taken from paper PMC11479587.

Target: Ssa1 (yeast (S. cerevisiae)) (UniProt P10591)
Sequence (P10591 whole entry): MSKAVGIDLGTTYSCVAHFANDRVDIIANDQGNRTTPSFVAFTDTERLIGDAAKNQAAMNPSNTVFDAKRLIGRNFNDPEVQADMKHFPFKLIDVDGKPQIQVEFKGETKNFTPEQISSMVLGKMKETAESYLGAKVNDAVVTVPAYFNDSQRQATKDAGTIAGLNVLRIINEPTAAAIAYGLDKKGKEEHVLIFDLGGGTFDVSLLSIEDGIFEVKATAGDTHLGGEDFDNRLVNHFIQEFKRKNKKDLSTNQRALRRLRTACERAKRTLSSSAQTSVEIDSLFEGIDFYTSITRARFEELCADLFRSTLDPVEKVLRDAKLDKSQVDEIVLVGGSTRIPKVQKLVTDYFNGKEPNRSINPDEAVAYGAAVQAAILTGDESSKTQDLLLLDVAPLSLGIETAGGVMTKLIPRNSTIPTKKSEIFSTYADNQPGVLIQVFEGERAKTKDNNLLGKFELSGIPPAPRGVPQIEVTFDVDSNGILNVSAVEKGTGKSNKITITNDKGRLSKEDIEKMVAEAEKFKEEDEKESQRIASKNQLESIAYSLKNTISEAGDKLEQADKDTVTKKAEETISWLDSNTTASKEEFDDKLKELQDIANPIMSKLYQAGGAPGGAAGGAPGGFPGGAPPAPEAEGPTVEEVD

Sse1-2 variant (N572Y E575A) (from UniProt P32589 1-693) (natural protein)
renaturation of heat-aggregated GFP by Ssa1-Sis1 (1 µM each); concentration of Sse1-2 against Sse1 WT needed for the same activity; no inhibition up to 2 µM Sse1-2: 20 times
